{"source": "patent US11312773B2", "about": "“Anti-PD-L1 antibody” (Fuso Pharmaceutical Industries, Ltd., priority 2016, dated 2022)", "molecules": {"B1": {"name": "4G12: rat anti-bovine PD-L1 monoclonal antibody; VL SEQ ID NO: 1, VH SEQ ID NO: 2 (antibody, listed as Rattus norvegicus, V domains shown)", "VH": "MGWSQIILFLVAAATCVHSQVQLQQSGAELVKPGSSVKISCKASGYTFTSNFMHWVKQQPGNGLEWIGWIYPEYGNTKYNQKFDGKATLTADKSSSTAYMQLSSLTSEDSAVYFCASEEAVISLVYWGQGTLVTVSS", "VL": "MESQTHVLISLLLSVSGTYGDIAITQSPSSVAVSVGETVTLSCKSSQSLLYSENQKDYLGWYQQKPGQTPKPLIYWATNRHTGVPDRFTGSGSGTDFTLIISSVQAEDLADYYCGQYLVYPFTFGPGTKLELK"}}, "key": {"[1]": {"biological_target": "T1, canine PD-1/PD-L1 binding (Canis lupus familiaris, UniProt A0A8I3P7C4)", "T1 construct": "made in house; host or cells: Expi293F", "T1 sequence (A0A8I3P7C4 19-237)": "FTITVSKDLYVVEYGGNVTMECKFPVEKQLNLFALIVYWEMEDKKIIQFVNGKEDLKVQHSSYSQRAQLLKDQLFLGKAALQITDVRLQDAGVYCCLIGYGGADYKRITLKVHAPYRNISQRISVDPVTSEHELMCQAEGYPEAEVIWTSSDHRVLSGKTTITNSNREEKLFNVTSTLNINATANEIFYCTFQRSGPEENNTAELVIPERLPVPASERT", "assay": "Canine PD-1/PD-L1 binding inhibition ELISA (cPD-1-Ig immobilized, biotinylated cPD-L1-Ig)", "conditions": "antibody 0, 2.5, 5 and 10 μg/ml", "protocol": "Briefly, canine PD-1-Ig (prepared in 2.4 above) was immobilized on flat bottomed 96-well plates and blocked with 1% BSA and 0.05% Tween 20-containing PBS. […] The binding of cPD-L1-Ig to cPD-1-Ig was measured by color reaction using Neutravidin-HRP (Thermo Fisher Scientific) and TMB one component substrate (Bethyl Laboratories).\nBriefly, heavy chain and light chain variable region genes were identified from hybridomas producing rat anti-bovine PD-L1 monoclonal antibodies 4G12 and 6G7. Further, the heavy chain and light chain variable region genes of the above rat antibodies were linked to the constant region of heavy chain IgG4 and the constant region of light chain Lambda of a known canine antibody, respectively, to prepare nucleotide sequences, followed by codon optimization (SEQ ID NOS: 9 and 10 (amino acid sequences), SEQ ID NOS: 19 and 20 (nucleotide sequences after codon optimization). Then, synthesis of genes was performed so that NotI restriction enzyme recognition site. KOZAK sequence, chimeric antibody's light chain sequence, poly-A addition signal sequence (PABGH), promoter sequence (PCMV), SacI restriction enzyme recognition site, intron sequence (INRBG), KOZAK sequence, chimeric antibody's heavy chain sequence and XbaI restriction enzyme recognition site would be located in this order. […]"}, "[2]": {"tested_on": "canine CD80/PD-L1 binding", "assay": "Canine CD80/PD-L1 binding inhibition ELISA (cCD80-Ig immobilized, cPD-L1-Ig)", "conditions": "antibody 0, 2.5, 5 and 10 μg/ml", "protocol": "Using the canine PD-1-Ig, PD-L1-Ig and CD80-Ig (described above), anti-PD-L1 antibody was tested for its ability to inhibit canine PD-1/PD-L1 binding and CD80/PD-L1 binding. Briefly, canine PD-1-Ig or CD80-Ig was immobilized on flat-bottom 96-well plates."}, "[3]": {"tested_on": "water buffalo leukocytes", "assay": "Flow cytometry reactivity with water buffalo leukocytes", "type": "binding, water buffalo (Bubalus bubalis)", "protocol": "Peripheral blood of water buffalo (Bubalus bubalis; Asian water buffalo) was hemolyzed with ACK buffer to isolate leukocytes. […] After washing, reaction with allophycocyanine-labelled anti-rat Ig goat antibody (Beckman Coulter) and fluorescein isothiocyanate-labeled anti-mouse IgG2 goat antibody (Beckman Coulter) was conducted at room temperature for 30 min. For analysis, FACS Calibur (BD Biosciences) was used. As a negative control antibody, rat IgG2a (κ) isotype control (BD Biosciences) was used. For every washing operation and dilution of antibodies, 10% inactivated goat serum supplemented PBS was used."}, "[4]": {"tested_on": "ovine PD-1/PD-L1 binding", "assay": "Ovine PD-1/PD-L1 binding inhibition test (PD-1-EGFP COS-7 cells and PD-L1-Ig)", "conditions": "antibody 0-50 μg/ml, ovine PD-L1-Ig 1 μg/ml", "protocol": "(§1) Using ovine PD-1-EGFP expressing COS-7 cells and ovine PD-L1-Ig recombinant protein, or porcine PD-1-EGFP expressing COS-7 cells and porcine PD-L1-Ig recombinant protein, inhibition of ovine or porcine PD-1/PD-L1 binding by rat anti-bovine PD-L1 antibody […] was tested. […] Subsequently, the antibody 4G12 was reacted with 2×10^5 ovine PD-1-EGFP expressing COS-7 cells or porcine PD-1-EGFP expressing COS-7 cells at 37° C. for 30 min. After washing, ovine PD-L1-Ig or porcine PD-L1-Ig bound to cell surfaces was detected with Alexa Fluor 647-labeled anti-rabbit IgG (H+L) goat F(ab′)2 (Life Technologies). For analysis, FACS Verse (BD Biosciences) was used. As a negative control antibody, rat IgG2a (κ) isotype control (BD Biosciences) was used. Taking the proportion of PD-L1-Ig bound cells without antibody addition as 100%, the proportion of PD-L1-Ig bound cells at each antibody concentration was shown as relative value."}, "[5]": {"tested_on": "porcine PD-1/PD-L1 binding", "assay": "Porcine PD-1/PD-L1 binding inhibition test (PD-1-EGFP COS-7 cells and PD-L1-Ig)", "conditions": "antibody 0-50 μg/ml, porcine PD-L1-Ig 5 μg/ml", "protocol": "as §1"}}}
{"molecule": "B1", "values": [{"measurement": "Inhibitory activity against canine PD-1/PD-L1 binding", "setting": "[1]", "result": "reduced the amounts of binding"}, {"measurement": "Inhibitory activity against canine CD80/PD-L1 binding", "setting": "[2]", "result": "reduced the amounts of binding"}, {"measurement": "Binding to blood macrophages (CD14+ CD11b+ cells) of water buffalo", "setting": "[3]", "result": "strongly bound"}, {"measurement": "Binding to lymphocytes (CD14− CD11b− cells) of water buffalo", "setting": "[3]", "result": "weakly bound"}, {"measurement": "Inhibition of ovine PD-1/PD-L1 binding", "setting": "[4]", "result": "capable of inhibiting"}, {"measurement": "Inhibition of porcine PD-1/PD-L1 binding", "setting": "[5]", "result": "capable of inhibiting"}]}
